Legend:
[1] = target: T1, actin filaments (F-actin) polymerised from rabbit muscle actin (rabbit, UniProt P68135 1-377); test: single-molecule TIRF binding kinetics (on-rate); tethered actin filaments; frequency of binding events for a range of concentrations of actin-binding domain, linear regression of frequency against concentration; settings: both partners purified
[2] = target: T1, actin filaments (F-actin) polymerised …; test: single-molecule TIRF binding kinetics (dwell times); actin filaments tethered to a PEG/biotin-PEG coverslip by streptavidin and biotin-phalloidin; labelled binding domain in solution at ~0.05–0.1 nM; 25 mM imidazole, 25 mM KCl, 4 mM MgCl2, 1 mM EGTA, 1 mM DTT, pH 7.4, 10 µg/mL beta casein; double exponential fit of the CDF, bleaching corrected; settings: both partners purified

Row | kon [1] [M⁻¹ s⁻¹] | average dwell time (τav) [2] [s] | ratio of the two dwell-time scales (τ2/τ1) [2] | Binder
1 | 2.2e+06 ± 300000 | ~1.1 | 18.3 | actin-binding domain of human utrophin (CH1–CH2, AA 1–261) (domain or fragment, maleimide dye on the C-terminal KCK linker (Alexa-488 C5, Alexa-555 C2 or Alexa-647 C2 maleimide; Alexa-555 named as the dye of the dwell-time experiments), KCK linker on the C terminus for maleimide labelling; both cleaved by TEV; also called utrnWT; utrn ABD; source: E. coli BL21 (DE3) pLysS, purified (IMAC, TEV cleavage, size exclusion chromatography); not shown: His10, N-terminal, cleaved; z-tag, N-terminal, cleaved) MAKYGEHEASPDNGQNEFSDIIKSRSDEHNDVQKKTFTKWINARFSKSGKPPINDMFTDLKDGRKLLDLLEGLTGTSLPKERGSTRVHALNNVNRVLQVLHQNNVELVNIGGTDIVDGNHKLTLGLLWSIILHWQVKDVMKDVMSDLQQTNSEKILLSWVRQTTRPYSQVNVLNFTTSWTDGLAFNAVLHRHKPDLFSWDKVVKMSPIERLEHAFSKAQTYLGIEKLLDPEDVAVQLPDKKSIIMYLTSLFEVLPQQVTIDGGSGKCKSA
2 | 5e+06 ± 2e+06 | ~4.6 | – | utrophin actin-binding domain Q33A T36A G125A L132A (domain or fragment, maleimide dye on the C-terminal KCK linker (Alexa-488 C5, Alexa-555 C2 or Alexa-647 C2 maleimide; Alexa-555 named as the dye of the dwell-time experiments), KCK linker on the C terminus for maleimide labelling; also called utrnSF; source: E. coli BL21 (DE3) pLysS, purified (IMAC, TEV cleavage, size exclusion chromatography); not shown: His10, N-terminal, cleaved; z-tag, N-terminal, cleaved) MAKYGEHEASPDNGQNEFSDIIKSRSDEHNDVAKKAFTKWINARFSKSGKPPINDMFTDLKDGRKLLDLLEGLTGTSLPKERGSTRVHALNNVNRVLQVLHQNNVELVNIGGTDIVDGNHKLTLALLWSIIAHWQVKDVMKDVMSDLQQTNSEKILLSWVRQTTRPYSQVNVLNFTTSWTDGLAFNAVLHRHKPDLFSWDKVVKMSPIERLEHAFSKAQTYLGIEKLLDPEDVAVQLPDKKSIIMYLTSLFEVLPQQVTIDGGSGKCKSA
3 | 2.4e+06 ± 300000 | ~1.3 | 9.6 | utrophin actin-binding domain Q33A T36A K121A (domain or fragment, maleimide dye on the C-terminal KCK linker (Alexa-488 C5, Alexa-555 C2 or Alexa-647 C2 maleimide; Alexa-555 named as the dye of the dwell-time experiments), KCK linker on the C terminus for maleimide labelling; also called utrnLAM; source: E. coli BL21 (DE3) pLysS, purified (IMAC, TEV cleavage, size exclusion chromatography); not shown: His10, N-terminal, cleaved; z-tag, N-terminal, cleaved) MAKYGEHEASPDNGQNEFSDIIKSRSDEHNDVAKKAFTKWINARFSKSGKPPINDMFTDLKDGRKLLDLLEGLTGTSLPKERGSTRVHALNNVNRVLQVLHQNNVELVNIGGTDIVDGNHALTLGLLWSIILHWQVKDVMKDVMSDLQQTNSEKILLSWVRQTTRPYSQVNVLNFTTSWTDGLAFNAVLHRHKPDLFSWDKVVKMSPIERLEHAFSKAQTYLGIEKLLDPEDVAVQLPDKKSIIMYLTSLFEVLPQQVTIDGGSGKCKSA

Reference: article PMC7688639, “Biased localization of actin binding proteins by actin filament conformation” (Nature Communications, 2020)
